Experimental data as given in patent US20060115482A1, “Modifications of histone proteins as indicators of cell proliferation and differentiation” (The Regents of the University of California, priority 2004, published 2006).

System: H2B-S33
Assay: In vitro kinase assay (γ32P-ATP, SDS-PAGE, autoradiography, scintillation counting)
Type: biochemical, Drosophila
Conditions: for Turnover values for phosphorylation of H2B-S33: 3 μg enzyme
Protocol: Kinase reactions were programmed with 1 μg RAP74, 1 μg recombinant histone, 2 μg polynucleosomes, 2 μg histone octamers, or 300 ng histone peptide, and contained 400 ng endogenous TFIID or 250 ng recombinant TAF1 derivatives and 0.25 μCi γ^32P-ATP. Reactions were performed in 20 μl kinase buffer (25 mM Hepes (pH 7.6), 10% glycerol, and 400 mM NaCl) for 25 min at 25° C. Reaction products were analyzed by SDS-PAGE using 8%—(for recombinant proteins), 15%—(for histones), or 18% (for peptides) gels. After electrophoresis, gels were dried and exposed to X-ray film.
To quantify kinase reactions, reactions products were separated by SDS-PAGE and detected by coomassie blue staining. Radiolabeled H2B was detected by autoradiography, excised from the gel, and analyzed by scintillation counting.
To measure the kinase activity of TFIID, TAF1, CTK, and mutant CTK-derivatives, reaction products of in vitro kinase assays were separated by SDS-PAGE and stained with coomassie blue. Radiolabeled H2B, H2BT and controls were excised from the gel and incorporation of radioactivity was determined by scintillation counting. Turnover values for phosphorylation of H2B-S33 were determined by measuring incorporation of radiolabeled phosphate groups into H2B in the presence of 3 μg TAF1, TFIID, or CTK-derivatives and 3 μg H2B or 12 μg nucleosomes. The turnover values were: TFIID (nucleosomes: 3.3/sec; H2B: 2.6/sec); TAF1: (nucleosomes: 2.5/sec; H2B: 2.5/sec); CTK: (nucleosomes: 2.6/sec; H2B: 4.4/sec).

Substance	H2B phosphorylation in vitro (qualitative) (autoradiography)	kinase activity, % of the activity determined for TFIID, TAF1 and CTK (radiolabeled H2B, scintillation counting)	Turnover values for phosphorylation of H2B-S33 (substrate 3 μg H2B) [s⁻¹]	Turnover values for phosphorylation of H2B-S33 (substrate 12 μg nucleosomes) [s⁻¹]
TAF1ΔCTK: TAF1 truncated by stop codon behind amino acid 1728, deleting the CTK downstream of the DBD	does not phosphorylate H2B in vitro	less than 0.1%	–	–
TAF1: subunit of TFIID that has kinase activity; recombinant Flag-tagged Drosophila protein	–	–	2.5	2.5
